# Laboratory results taken from US20180105596A1 (ELSALYS BIOTECH, published 2018).
# Residue numbers refer to the chain shown, from its start.
# T1: extracellular domain of human Axl, Fc fusion (R&D Systems 154-AL-100) (human, UniProt P30530 26-451)
# T1 construct: Bought protein; also called hAxl; hAXL; not shown: Fc of the bought ECD-Fc fusion
# T1 sequence: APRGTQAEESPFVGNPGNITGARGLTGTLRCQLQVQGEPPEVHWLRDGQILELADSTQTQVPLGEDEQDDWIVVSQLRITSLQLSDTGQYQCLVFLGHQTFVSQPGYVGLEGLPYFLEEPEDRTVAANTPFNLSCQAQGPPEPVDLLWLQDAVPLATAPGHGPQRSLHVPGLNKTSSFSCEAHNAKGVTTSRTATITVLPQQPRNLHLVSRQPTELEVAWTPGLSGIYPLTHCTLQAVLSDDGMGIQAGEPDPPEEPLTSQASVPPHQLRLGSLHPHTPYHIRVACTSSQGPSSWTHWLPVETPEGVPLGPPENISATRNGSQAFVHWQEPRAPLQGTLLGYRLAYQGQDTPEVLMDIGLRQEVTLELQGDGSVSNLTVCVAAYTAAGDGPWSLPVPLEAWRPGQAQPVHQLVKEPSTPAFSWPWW
# T2: hTyro 3-ECD
# T2 construct: not the His-Strep tagged ECD m13; also called Recombinant Human Dtk-Fc Chimera (R&D Systems 859-DK-100); not shown: Human Fc, and any linker, of the commercial chimera (R&D Systems 859-DK-100)
# T2 chain: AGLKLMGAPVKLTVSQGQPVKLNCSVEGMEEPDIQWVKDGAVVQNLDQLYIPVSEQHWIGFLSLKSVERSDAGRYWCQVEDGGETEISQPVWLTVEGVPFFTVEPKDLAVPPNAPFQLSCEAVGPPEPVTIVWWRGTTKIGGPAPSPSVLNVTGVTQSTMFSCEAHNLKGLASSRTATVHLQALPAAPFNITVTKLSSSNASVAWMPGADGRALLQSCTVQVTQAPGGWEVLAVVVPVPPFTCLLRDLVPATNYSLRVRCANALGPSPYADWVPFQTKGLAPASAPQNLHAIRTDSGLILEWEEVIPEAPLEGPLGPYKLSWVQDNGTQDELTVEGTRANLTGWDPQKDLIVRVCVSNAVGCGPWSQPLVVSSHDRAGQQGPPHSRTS
# T3: extracellular domain of human Mer, Fc fusion (R&D Systems 891-MR-100) (human, UniProt Q12866 21-505)
# T3 construct: Bought protein; also called hMer; hMER; not shown: Fc of the bought ECD-Fc fusion
# T3 sequence: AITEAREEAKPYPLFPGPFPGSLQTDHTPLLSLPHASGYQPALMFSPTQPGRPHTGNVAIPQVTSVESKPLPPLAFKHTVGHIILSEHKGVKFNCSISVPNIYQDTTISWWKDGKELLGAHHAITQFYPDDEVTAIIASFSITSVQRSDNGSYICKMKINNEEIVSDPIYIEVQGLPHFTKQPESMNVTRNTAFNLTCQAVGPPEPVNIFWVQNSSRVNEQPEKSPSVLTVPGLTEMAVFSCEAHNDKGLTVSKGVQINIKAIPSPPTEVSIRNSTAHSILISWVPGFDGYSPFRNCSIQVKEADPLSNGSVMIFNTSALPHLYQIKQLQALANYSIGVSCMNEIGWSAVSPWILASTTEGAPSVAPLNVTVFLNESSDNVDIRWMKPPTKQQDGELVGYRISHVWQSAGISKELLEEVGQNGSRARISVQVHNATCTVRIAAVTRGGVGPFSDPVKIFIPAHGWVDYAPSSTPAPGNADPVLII
# T4: Ig-1 and Ig-2 domains fragment of human Tyro3 ECD, His-Strep tagged (human)
# T4 construct: also called Ig1-Ig2 fragment
# T4 chain: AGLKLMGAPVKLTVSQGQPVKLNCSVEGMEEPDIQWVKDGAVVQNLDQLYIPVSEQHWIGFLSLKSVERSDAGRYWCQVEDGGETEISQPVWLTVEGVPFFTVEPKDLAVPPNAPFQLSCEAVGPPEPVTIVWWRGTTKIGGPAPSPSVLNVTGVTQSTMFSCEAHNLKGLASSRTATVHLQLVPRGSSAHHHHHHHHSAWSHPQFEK
# T5: Ig-1 domain fragment of human Tyro3 ECD, His-Strep tagged (human)
# T5 chain: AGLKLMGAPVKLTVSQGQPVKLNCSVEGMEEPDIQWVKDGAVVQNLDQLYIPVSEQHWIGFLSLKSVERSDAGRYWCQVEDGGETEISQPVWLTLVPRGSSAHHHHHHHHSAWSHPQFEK
# T6: Tyro3 ECD FNIII 1-FNIII-2
# T6 construct: also called FNIII 1 + FNIII 2 fragment of hTyro3 ECD, His-Strep tagged
# T6 fragment: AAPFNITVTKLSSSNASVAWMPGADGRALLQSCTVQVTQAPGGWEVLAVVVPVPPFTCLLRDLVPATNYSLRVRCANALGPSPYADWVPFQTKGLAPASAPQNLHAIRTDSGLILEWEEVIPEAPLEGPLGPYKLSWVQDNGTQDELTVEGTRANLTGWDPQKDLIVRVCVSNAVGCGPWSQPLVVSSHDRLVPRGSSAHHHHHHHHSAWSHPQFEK
# T7: Tyro3 ECD Ig2-FNIII 1
# T7 construct: also called Ig2 + FNIII 1 fragment of hTyro3 ECD, His-Strep tagged
# T7 fragment: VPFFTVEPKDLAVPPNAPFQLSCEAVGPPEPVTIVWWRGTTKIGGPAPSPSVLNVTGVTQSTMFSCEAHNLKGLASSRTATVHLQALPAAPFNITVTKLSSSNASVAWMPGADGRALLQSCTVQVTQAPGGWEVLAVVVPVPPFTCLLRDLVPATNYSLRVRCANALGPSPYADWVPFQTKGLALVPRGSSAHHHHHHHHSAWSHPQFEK
# T8: cynomolgus Tyro3 ECD, His-Strep tagged
# T8 construct: also called cyno TYRO3 ECD 8hisstrep
# T8 extracellular domain: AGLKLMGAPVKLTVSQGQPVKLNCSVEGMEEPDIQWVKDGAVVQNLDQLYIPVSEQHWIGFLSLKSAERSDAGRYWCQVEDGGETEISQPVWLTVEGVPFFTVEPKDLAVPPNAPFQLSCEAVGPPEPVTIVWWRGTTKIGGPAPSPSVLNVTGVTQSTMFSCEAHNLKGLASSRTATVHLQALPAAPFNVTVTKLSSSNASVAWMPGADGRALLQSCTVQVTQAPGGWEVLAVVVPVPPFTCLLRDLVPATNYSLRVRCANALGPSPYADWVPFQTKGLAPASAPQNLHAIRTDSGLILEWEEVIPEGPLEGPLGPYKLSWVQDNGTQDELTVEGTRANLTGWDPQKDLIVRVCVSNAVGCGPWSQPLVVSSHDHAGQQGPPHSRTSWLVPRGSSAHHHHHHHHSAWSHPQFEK
# T9: recombinant His-Strep tagged human Tyro3 extracellular domain (human, UniProt Q06418 41-429)
# T9 construct: also called hTyro3 ECD; full Tyro3 ECD
# T9 sequence: T8 extracellular domain with A67V, V191I, G309A, H376R
# B1: anti-Tyro3 scFv 2413 (scFv, V domains shown)
# VH: EVQLVQSGADVKKPGASLTISCQASGYTFTDYWISWVRQKPGKGLEWMGRIHTYQSSTRYGPSFQGHVTISADRSTATAYLQWRSLEASDTAMYYCVRHHSTTTANPYSSWGPGTLVTVSS
# VL: SYELTQPPSVSVSPGQTARITCSGDALPKKYAYWYQQKSGQAPVLVIYEDDKRLSGIPERFSGSSSGTMATLTISGAQVEDEADYYCYSTEINGNYAVFGGGTKLTVL
# notes: Tested as a single-chain Fv made in E. coli
# B2: anti-Tyro3 scFv 2411 (scFv, V domains shown)
# VH: EVQLVQSGADVKKPGASLTISCQASGYTFTDYWISWVRQKPGKGLEWMGSITRSSSRTHYGPSFQGHVTISADRSTATAYLQWRSLEASDTAMYYCVRGYTHLRTWGPGTLVTVSS
# VL: B1 VL with D51S, L54S, T90A, E91N, I92Q, N93R, A97M
# notes: as for B1
# B3: IgG2411 (antibody, V domains shown)
# VH: B2 VH
# VL: B1 VL with D51S, L54S, T90A, E91N, I92Q, N93R, A97M
# notes: also called IGX2411
# B4: anti-Tyro3 scFv 2718 (scFv, V domains shown)
# VH: EVQLVQSGADVKKPGASLTISCQASGYTFTDYWISWVRQKPGKGLEWMGHINPMRSTTTYGPSFQGHVTISADRSTATAYLQWHSLEASDTAMYYCVRNDNHDDYTYTDDWGPGTLVTVSS
# VL: B1 VL with D51T, L54H, T90A, I92H, N93R
# notes: as for B1
# Tests used:
# [1] = target: T1, extracellular domain of human Axl, Fc …; assay: ELISA, ECD coated 1 µg/well, scFv 1 µg/mL, anti-tag-HRP
# Procedure: (§1) Extracellular domains of hTyro 3 (859-DK-100), hAxl (154-AL-100) or hMer (891-MR-100) from R&D Systems were coated onto 96-wells microtiter plates (1 μg/well) in PBS and incubated overnight at 4° C. Plates were washed three times with PBS and blocked in PBS/3% BSA for 1 hour at RT. Plates were washed as above and scFvs were added at 1 μg/mL (diluted in PBS) and incubated for 1 hour at RT. Plates were washed three times with PBST (PBS/0.01% Tween-20) and secondary antibody anti-FLAG-HRP was added (Abcam, ab49763, 1/5000 dilution in blocking buffer) for 1 hour at RT. Plates were washed as above with PBST and signal was developed with Ultra-TMB reagent (Thermo Scientific, 34028).
# hTyro 3-ECD = target: T2, hTyro 3-ECD; assay: as above
# Procedure: as §1
# [2] = target: T3, extracellular domain of human Mer, Fc …; assay: as above
# Procedure: as §1
# [3] = target: T4, Ig-1 and Ig-2 domains fragment of human …; assay: sandwich ELISA, Strep-tagged fragment captured on StrepMAB plate, scFv 10 µg/mL (Table 17), anti-FLAG-HRP
# [4] = target: T5, Ig-1 domain fragment of human Tyro3 …; assay: as above
# [5] = target: T6, Tyro3 ECD FNIII 1-FNIII-2; assay: as above
# Tyro3 ECD Ig2-FNIII 1 = target: T7, Tyro3 ECD Ig2-FNIII 1; assay: as above
# [6] = target: T8, cynomolgus Tyro3 ECD, His-Strep tagged; assay: sandwich ELISA, Strep-tagged cynomolgus Tyro3 ECD captured on StrepMAB plate, IgG 3-fold from 3 µg/mL, anti-human IgG1-HRP
# Procedure: [The procedure below names another species; the source lists this species under the same test.] (§2) A double sandwich ELISA was developed. This assay consisted in measuring the binding of the anti-Tyro3 antibodies to be tested on immobilized strep-tagged entire human Tyro3 ECD captured directly on ELISA plate pre-coated with an anti-strep mAb (StrepMAB-Immo coated microplates from IBA biotech). Briefly, the 96 wells of StrepMAB-Immo coated microplate were washed three times with 300 μL of the PBS Tween 0.2% (referred as ELISA washing solution). The capture of an excess of purified strep tagged hTyro3 ECD protein was achieved by a one hour incubation at room temperature. In these experiments, 3 μg of purified protein diluted in PBS, BSA 1% (referred as ELISA diluent solution) were immobilized per well. The wells were washed three times with 300 μL of the washing solution. The non-specific binding sites on the well surface were blocked during 60 min at room temperature with 200 μL/well of blocking solution (PBS, BSA 3%). The wells were washed five times with 300 μL of the washing solution. Then, 100 μl (in duplicates) of the different concentrations of anti-Tyro3 antibodies to be tested diluted in ELISA diluent solution, were added per well and allowed to incubate during 1 hour at room temperature. An Irrelevant control IgG2656 was also added in this experiment. For anti-Tyro3 antibodies in the ScFv format, experiments were performed with 6 concentrations in duplicates (FIG. 3A). For anti-Tyro3 antibodies in the IgG format, experiments were performed with 9 concentrations in duplicates (FIG. 3B). […] For IgGs experiments, starting concentration for first dilution was 3 μg/ml and then dilutions of 3 fold in the ELISA diluent solution were performed. The wells were washed five times with 300 μL of the washing solution. […] The mix was allowed to incubated 60 min at room temperature.
# [7] = target: T9, recombinant His-Strep tagged human …; assay: sandwich ELISA, Strep-tagged hTyro3 ECD captured on StrepMAB plate, IgG 3-fold from 3 µg/mL, anti-human IgG1-HRP
# Procedure: as §2
Binder,binding result [1],binding result (hTyro 3-ECD),binding result [2],binding result [3],binding result [4],binding result [5],binding result (Tyro3 ECD Ig2-FNIII 1),EC50 (read off the curve) [6],EC50 (read off the curve) [7]
B1,no binding (tested: 1 µg/mL),binds,no binding (tested: 1 µg/mL),binds,binds,no binding (tested: 10 µg/mL),binds,,
B2,no binding (tested: 1 µg/mL),binds,no binding (tested: 1 µg/mL),binds,binds,no binding (tested: 10 µg/mL),binds,,
B3,,,,,,,,~0.02 µg/mL,~0.02 µg/mL
B4,no binding (tested: 1 µg/mL),binds,no binding (tested: 1 µg/mL),no binding (tested: 10 µg/mL),no binding (tested: 10 µg/mL),binds,binds,,
